Results as given in patent publication US20130129719, “HER2 NUCLEIC ACID APTAMERS” (UNIVERSITY OF IOWA RESEARCH FOUNDATION, published 2013).

Experiments:
[1] = molecular target: HER2 extracellular domain (HER2-ECD) (Rattus norvegicus, UniProt P06494 P06494:23-654); test: FP; selection buffer, room temperature 30 min, protein up to 1 uM; conditions: label: 5'-FAM
Protocol: (§1) FIG. 3. Binding of HER2-aptamers to recombinant HER2-ECD protein. RNA aptamers labeled with FAM at the 5′ end were incubated with recombinant rat HER2-ECD protein in increasing concentrations up to 1 μM at room temperature for 30 minutes in 100 μL reaction volumes. A non-target protein (glyoxylase) is used as a negative control in these assays (Control protein). The binding reaction is performed in the buffer in which the selection was performed. Fluorescence polarization (FP) values for each RNA concentration are read using an Analyst HT plate reader by LJL Biosystems. FP is given by P=(V−H)/(V+H), where V is the vertical component of polarized light, and H is the horizontal component of polarized light. Values of polarization range from 0 to 500 mP, with 0 mP being no binding of the RNA and 500 mP representing maximal binding. The curve is fit with a one-site binding model using non-linear regression software. This confirms the binding of the HER2 aptamers to […] HER2 using Fluorescence Polarization. […] This experiment was done several times and was reproducible.
(§2) The inventors next verified that several of the internalizing aptamers were binding specifically to HER2 using fluorescence polarization (FP). This was done by measuring binding of the RNAs to recombinant purified rat HER2-ECD (extra cellular domain) (FIG. 3). […] A control protein (human glyoxylase) was used as a negative control for binding in these studies.

[2] = molecular target: T1, glyoxylase (negative control protein) (Homo sapiens, UniProt Q04760 Q04760:2-184); test: FP; specificity control, room temperature; conditions: tags: His-tag; label: 5'-FAM
T1 sequence: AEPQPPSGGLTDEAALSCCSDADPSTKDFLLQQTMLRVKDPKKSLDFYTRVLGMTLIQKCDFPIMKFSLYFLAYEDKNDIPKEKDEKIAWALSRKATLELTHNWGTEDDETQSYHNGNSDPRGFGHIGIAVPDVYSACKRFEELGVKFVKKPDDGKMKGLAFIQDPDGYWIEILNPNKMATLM
Protocol: as §1, §2

HER2 extracellular domain (HER2-ECD), sequence (P06494 23-654, one chain of several): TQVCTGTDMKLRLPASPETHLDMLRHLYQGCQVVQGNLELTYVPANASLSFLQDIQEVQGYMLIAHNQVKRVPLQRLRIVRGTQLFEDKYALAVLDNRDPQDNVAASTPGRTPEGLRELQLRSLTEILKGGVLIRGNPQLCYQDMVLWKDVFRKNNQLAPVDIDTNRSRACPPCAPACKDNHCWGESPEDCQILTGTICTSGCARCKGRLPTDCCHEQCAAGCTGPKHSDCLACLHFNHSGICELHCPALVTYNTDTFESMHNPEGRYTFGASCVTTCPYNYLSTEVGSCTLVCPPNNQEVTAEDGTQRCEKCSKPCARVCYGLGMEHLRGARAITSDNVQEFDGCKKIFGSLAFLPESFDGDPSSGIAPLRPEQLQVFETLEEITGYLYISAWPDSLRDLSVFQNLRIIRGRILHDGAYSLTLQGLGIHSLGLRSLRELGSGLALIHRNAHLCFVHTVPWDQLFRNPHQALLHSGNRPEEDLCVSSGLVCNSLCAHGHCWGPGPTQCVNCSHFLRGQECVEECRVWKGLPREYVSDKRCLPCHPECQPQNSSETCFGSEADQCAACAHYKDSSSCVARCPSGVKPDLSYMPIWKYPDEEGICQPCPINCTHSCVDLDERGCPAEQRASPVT

B1: E1 (ssRNA)
RNA: GGGAGGACGAUGCGGUCCUGUCGUCUGUUCGUCCCCAGACGACUCGCCCGA
binding result [1]: binds | binding result [2]: no binding

B2: B1 (ssRNA)
RNA: GGGAGGACGAUGCGGUCUGUUGUGCUUGAUAUGCCCCAGACGACUCGCCCGA
binding result [1]: binds | binding result [2]: no binding

B3: D1 (ssRNA)
RNA: GGGAGGACGAUGCGGAUGUAUGUUGGGAGCCACGCCAGACGACUCGCCCGA
binding result [1]: binds | binding result [2]: no binding

GGGAGGACGAUGCGGGACUGUAUGGGGCUCUGUGCAGACGACUCGCCCGA (ssRNA) [A2]
binding result [1]: binds | binding result [2]: no binding

B4: C1 (ssRNA)
RNA: GGGAGGACGAUGCGGCUGUCUACCUUCUACUGCCGCAGACGACUCGCCCGA
binding result [1]: binds | binding result [2]: no binding
